The subject of data set [1] is TALER9 (synthetic). Put plainly: cell_activity. The settings on record: for activity (mKate2/TagBFP): cognate 0.01.
The test system of data set [2] is TALER10 (synthetic). Put plainly: cell_activity. As to conditions: for activity (mKate2/TagBFP): cognate 0.00.
For data set [3], the system named is TALER5 (synthetic). Put plainly: cell_activity.
Data set [4] addresses T1, TALER26 (synthetic, UniProt P14727 SEQ:263-1244).
T1 chain: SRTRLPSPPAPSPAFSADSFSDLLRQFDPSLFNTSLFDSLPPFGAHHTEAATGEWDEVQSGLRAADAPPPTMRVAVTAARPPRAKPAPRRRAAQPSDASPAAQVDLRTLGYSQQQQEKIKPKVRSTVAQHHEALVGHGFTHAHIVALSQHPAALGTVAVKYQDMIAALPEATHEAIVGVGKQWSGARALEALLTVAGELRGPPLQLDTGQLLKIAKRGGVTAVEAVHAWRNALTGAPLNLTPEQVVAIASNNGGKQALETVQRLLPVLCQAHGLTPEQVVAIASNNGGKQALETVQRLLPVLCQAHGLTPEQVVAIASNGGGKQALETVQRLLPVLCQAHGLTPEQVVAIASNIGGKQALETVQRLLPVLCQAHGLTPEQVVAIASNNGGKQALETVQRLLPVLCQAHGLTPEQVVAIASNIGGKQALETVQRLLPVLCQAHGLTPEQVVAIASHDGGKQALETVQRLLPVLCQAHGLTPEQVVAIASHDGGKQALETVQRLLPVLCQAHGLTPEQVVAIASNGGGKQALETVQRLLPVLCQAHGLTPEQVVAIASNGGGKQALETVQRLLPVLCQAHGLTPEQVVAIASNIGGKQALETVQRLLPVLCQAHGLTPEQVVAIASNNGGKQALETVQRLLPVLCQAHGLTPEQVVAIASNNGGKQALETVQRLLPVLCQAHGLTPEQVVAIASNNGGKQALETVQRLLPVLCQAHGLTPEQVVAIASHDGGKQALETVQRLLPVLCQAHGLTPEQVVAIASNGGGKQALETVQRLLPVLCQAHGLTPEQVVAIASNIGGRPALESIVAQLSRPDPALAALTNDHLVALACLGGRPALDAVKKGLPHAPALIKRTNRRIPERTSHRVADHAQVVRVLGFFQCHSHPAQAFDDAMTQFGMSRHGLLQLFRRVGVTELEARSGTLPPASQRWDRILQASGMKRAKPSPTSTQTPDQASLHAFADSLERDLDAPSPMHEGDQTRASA
Put plainly: cell_activity; HEK293, two sites flanking CMVmini. The settings on record: tags: EYFP-2A upstream, SV40 NLS.

Data set [5] has as its target T2, TALER24 (synthetic, UniProt P14727 SEQ:1-806).
T2 chain: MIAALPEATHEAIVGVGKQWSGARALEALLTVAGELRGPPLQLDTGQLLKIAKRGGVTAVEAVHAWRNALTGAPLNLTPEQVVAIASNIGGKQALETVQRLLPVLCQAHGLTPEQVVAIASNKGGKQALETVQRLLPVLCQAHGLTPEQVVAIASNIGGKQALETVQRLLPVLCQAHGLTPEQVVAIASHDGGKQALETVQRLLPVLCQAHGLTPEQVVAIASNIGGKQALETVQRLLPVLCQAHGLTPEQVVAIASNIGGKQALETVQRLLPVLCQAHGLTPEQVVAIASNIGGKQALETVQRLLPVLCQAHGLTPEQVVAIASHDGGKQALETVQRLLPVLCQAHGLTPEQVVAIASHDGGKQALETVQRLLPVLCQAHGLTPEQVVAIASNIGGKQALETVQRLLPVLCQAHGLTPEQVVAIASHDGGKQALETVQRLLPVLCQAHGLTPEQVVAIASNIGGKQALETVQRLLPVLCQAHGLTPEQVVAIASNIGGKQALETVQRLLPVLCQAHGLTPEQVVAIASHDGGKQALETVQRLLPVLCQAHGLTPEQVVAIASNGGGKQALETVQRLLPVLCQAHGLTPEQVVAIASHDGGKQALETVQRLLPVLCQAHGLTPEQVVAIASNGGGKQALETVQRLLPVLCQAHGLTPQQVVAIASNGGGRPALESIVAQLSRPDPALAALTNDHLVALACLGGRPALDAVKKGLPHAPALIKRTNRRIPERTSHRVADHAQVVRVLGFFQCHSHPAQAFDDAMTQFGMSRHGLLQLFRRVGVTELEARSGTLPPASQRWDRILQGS
Put plainly: cell_activity; HEK293, two sites flanking CMVmini. As to conditions: tags: EYFP-2A upstream, SV40 NLS.

[6] abbreviates: HEK293, two sites flanking CMVmini.

For “TTTATTCCCTGACA (double strand) [T35 site]”, the activity (mKate2/TagBFP) came to 2.15 in data set [1] and 1.03 in data set [2].
Regarding “TACTGAATAATCAACACTGAATTCTAGGCGTGTACGGTGGGAGGCCTATATAAGCAGAGCTCGTTTAGTGAACCGTCAGATCGCCTCGAGTACTGAATAATCAACACTTACTGAATAATCAACACTTACTGAATAATCAACACT (double strand) [T5-CMVmini-T5x3]”, the binding signal (fold repression) in data set [3] (HEK293, three 3' sites (15.43 with one)) was 281.
Turning to “TACCTCATCAGGAACATGTT (double strand) [T10 site]”, the activity (mKate2/TagBFP) in data set [1] was 2.54. Moreover, the binding signal (fold repression) in data set [2] (setting [6]) turned out to be 1310.
As for “TATAGAACCGATCCTCCCATT (double strand) [T9 site]”, in data set [1] (setting [6]), the binding signal (fold repression) was 636. The molecule also had an activity (mKate2/TagBFP) in data set [2] of 0.84.
In the case of “TACCCCTCTCCGCTTCT (double strand) [T14 site]”, the results for the activity (mKate2/TagBFP) in data set [1] and in data set [2] were 4.42 and 1.46, respectively.
On the same counts, the results for “TGTCGTCTTCTGCACTTAT (double strand) [T21 site]” are 2.95 and 1.06.
“TACTGAATAATCAACACT (double strand) [T5 site]” returned a binding signal (fold repression) in data set [3] (setting [6]) of 17.9.
With “TACGACTCACTATA (double strand) [T1 site]”, the results for the activity (mKate2/TagBFP) in data set [1] and in data set [2] were 5.14 and 2.51, respectively.
Taken in the same sequence, the figures for “TCCCGGAAGCCGATGCT (double strand) [T13 site]” were 2.17 and 0.93.
Taken in the same sequence, the figures for “TATTTCGACGCTCATTCT (double strand) [T12 site]” were 2.38 and 1.04.
Consider “TGCCCTCGGCCATCAGAAGGATCTT (double strand) [T16 site]”, for which the activity (mKate2/TagBFP) in data set [1] is 3.97; in data set [2] it was 1.66.
With “TCCGCCTCCCTCTC (double strand) [T29 site]”, the activity (mKate2/TagBFP) in data set [1] stood at 2.94; in data set [2] it was 1.19.

B1: T26 site (dsDNA)
DNA 1: TGGTAGACCTTAGGGCTA
DNA 2: TAGCCCTAAGGTCTACCA
In data set [4], B1 yielded a binding signal of 148 fold repression.

B2: T24 site (dsDNA)
DNA 1: TAGACAAACCACAACTCTT
DNA 2: AAGAGTTGTGGTTTGTCTA
In turn, B2 had a binding signal in data set [5] of 10.9 fold repression.
